In experiment [1] the target is T1, monomeric human CD19 Fc(kih) fusion protein (human, UniProt P0DOX5 223-449 = IgG part).
T1 construct: Heterodimeric Fc fusion with a single copy of the CD19 ectodomain; Part of the preparation was biotinylated at the Avi tag; the SPR text speaks of 'purified monomeric CD19-Fc' as analyte without saying whether it was biotinylated; also called monomeric CD19-Fc; human CD19-Fc fusion protein
As to the kind of experiment: SPR ProteOn XPR36, Fab from bacterial supernatant captured by anti-human Fab, monomeric CD19-Fc as analyte. The method, then: In order to further characterize the ELISA-positive clones, the off-rate was measured by surface plasmon resonance using a ProteOn XPR36 machine and compared with the parental humanized clone 8B8.
For this experiment, 7000 RU of polyclonal anti-human Fab antibody were immobilized on all 6 channels of a GLM chip by Amine coupling (NaAcetate pH4.5, 25 μl/min, 240 s) (vertical orientation). Each antibody-containing bacterial supernatant was filtered and 2-fold diluted with PBS, and then injected for 360 s at 25 μl/minute to achieve immobilization levels of between 100 and 400 response units (RU) in vertical orientation. Injection of monomeric CD19-Fc: For one-shot kinetics measurements, injection direction was changed to horizontal orientation, three-fold dilution series of purified monomeric CD19-Fc (varying concentration ranges between 150 and 6 nM) were injected simultaneously at 50 μl/min along separate channels 1-4, with association times of 180 s, and dissociation times of 300 s. […] Dissociation rate constants (koff) were calculated using a simple one-to-one Langmuir binding model in ProteOn Manager v3.1 software by simultaneously fitting the sensorgrams. […] Of note, the dissociation rate constants of clones 5A07 and 5B08 could not be determined due to inadequate fitting. […]

Experiment [2] deals with T1, monomeric human CD19 Fc(kih) fusion …. Kind of experiment: SPR ProteOn XPR36, 25 C, IgG from HEK supernatant captured by anti-human Fab, monomeric CD19-Fc as analyte. Here is the method:
The Affinity (KD) of the parental antibody 8B8 as well as it derivatives was measured by SPR using a ProteOn XPR36 instrument (Biorad) at 25° C. 7000 RU of polyclonal anti-human Fab antibody were immobilized on all 6 channels of a GLM chip by Amine coupling (NaAcetate pH4.5, 25 ul/min, 240 s) (vertical orientation). Each antibody-containing HEK supernatant was filtered, diluted with PBST (10 mM phosphate, 150 mM sodium chloride pH 7.4, 0.005% Tween 20) to a concentration of 10 ug/ml, and then injected at a for 360 s at 25 μl/minute to achieve immobilization levels between 500 and 800 response units (RU) in vertical orientation. Injection of monomeric CD19-Fc: For one-shot kinetics measurements, injection direction was changed to horizontal orientation, three-fold dilution series of purified monomeric CD19-Fc (varying concentration ranges between 150 and 6 nM) were injected simultaneously at 50 μl/min along separate channels 1-4, with association times of 180 s, and dissociation times of 300 s. A human IgG Fc fragment (150 nM) was injected in channel 5 as a negative control for specific binding to monomeric CD19-Fc. Buffer (PB ST) was injected along the sixth channel to provide an “in-line” blank for referencing. Regeneration was performed by two pulses of 10 mM glycine pH 1.5 and 50 mM NaOH for 30 s at 90 ul/min (vertical orientation). Association rate constants (kₒₙ) and dissociation rate constants (koff) were calculated using a simple one-to-one Langmuir binding model in ProteOn Manager v3.1 software by simultaneously fitting the association and dissociation sensorgrams. The equilibrium dissociation constant (KD) was calculated as the ratio koff/kₒₙ. The dissociation constant of all affinity-matured clones was improved compared to their parental clone 8B8.

Experiment [3] concerns the target T2, human CD19 on WSU-DLCL2 cells (human, UniProt P15391 20-556).
T2 construct: Endogenous CD19 of the B-cell non-Hodgkin lymphoma line WSU-DLCL2; also called CD19+ WSU-DLCL2; human CD19-expressing tumor cells
T2 sequence: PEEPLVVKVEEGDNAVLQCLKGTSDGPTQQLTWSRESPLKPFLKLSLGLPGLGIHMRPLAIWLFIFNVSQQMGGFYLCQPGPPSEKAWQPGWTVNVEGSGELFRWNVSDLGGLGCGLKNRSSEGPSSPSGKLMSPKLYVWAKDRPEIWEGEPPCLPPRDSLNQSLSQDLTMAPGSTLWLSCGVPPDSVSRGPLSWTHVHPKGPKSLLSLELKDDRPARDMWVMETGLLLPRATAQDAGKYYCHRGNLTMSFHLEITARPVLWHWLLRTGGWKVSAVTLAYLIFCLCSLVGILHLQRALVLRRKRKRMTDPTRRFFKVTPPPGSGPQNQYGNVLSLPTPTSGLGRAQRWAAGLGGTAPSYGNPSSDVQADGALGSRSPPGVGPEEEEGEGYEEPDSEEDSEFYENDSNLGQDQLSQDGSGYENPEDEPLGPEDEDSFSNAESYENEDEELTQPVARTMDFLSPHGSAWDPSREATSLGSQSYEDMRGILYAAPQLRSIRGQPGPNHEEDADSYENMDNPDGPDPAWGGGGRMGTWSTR
Kind of experiment: flow cytometry on CD19+ WSU-DLCL2 cells, PE anti-human IgG F(ab')2 detection. Here is the method: 0.1×10⁶ tumor cells resuspended in DPBS (Gibco by Life Technologies, Cat. No. 14190 326) were added to each well of a round-bottom suspension cell 96-well plate (greiner bio-one, cellstar, Cat. No. 650185). Cells were washed once with 200 μL DPBS. Cells were resuspended in 100 μL/well of 4° C. cold DPBS buffer containing 1:5000 diluted Fixable Viability Dye eFluor 660 (eBioscience, Cat. No. 65-0864-18) and plates were incubated for 30 minutes at 4° C. Cells were washed once with 200 μL/well 4° C. cold DPBS buffer and resuspended in 50 μL/well of 4° C. cold FACS buffer (DPBS supplied with 2% FBS, 5 mM EDTA pH8 (Amresco, Cat. No. E177) and 7.5 mM Sodium azide (Sigma-Aldrich S2002)) containing the CD19 binders at a series of concentrations, followed by incubation for 1 hour at 4° C. After extensive washing, cells were further stained with 50 μL/well of 4° C. cold FACS buffer containing 5 μg/mL PE-conjugated AffiniPure anti-human IgG F(ab′)2-fragment-specific goat F(ab′)2 fragment (Jackson ImmunoResearch, Cat. No. 109 116 098) for 30 minutes at 4° C. Cells were then washed twice with 200 μL/well 4° C. FACS buffer and cells were fixed in 50 μL/well DPBS containing 1% Formaldehyde (Sigma, HT501320-9.5L). Cells were resuspended in 100 μL/well FACS-buffer and acquired using the FACS LSR II (BD Biosciences). Data was analyzed using FlowJo V10 (FlowJo, LLC) and GraphPad Prism 6.04 (GraphPad Software, Inc).

B1: parental humanized anti-CD19 clone 8B8, Fab in bacterial supernatant (Fab, V domains shown)
VH: QVQLVQSGAEVKKPGASVKVSCKASGYTFTDYIMHWVRQAPGQGLEWMGYINPYNDGSKYTEKFQGRVTMTSDTSISTAYMELSRLRSDDTAVYYCARGTYYYGSALFDYWGQGTTVTVSS
VL: DIVMTQTPLSLSVTPGQPASISCKSSQSLENSNGNTYLNWYLQKPGQSPQLLIYRVSKRFSGVPDRFSGSGSGTDFTLKISRVEAEDVGVYYCLQLTHVPYTFGQGTKLEIK
notes: Soluble Fab expressed from the phagemid in bacterial supernatant (Flag-tagged); also called Parental 8B8; CD19 (8B8)
In general, koff refers to the rate constant with which the complex falls apart. Lower therefore signals a long-lived complex. In experiment [1], B1 came in with a dissociation rate constant (koff) of 0.000301 s⁻¹.

B2: anti-CD19 clone 8B8 in P329GLALA human IgG1 format (antibody, V domains shown)
VH: QVQLVQSGAEVKKPGASVKVSCKASGYTFTDYIMHWVRQAPGQGLEWMGYINPYNDGSKYTEKFQGRVTMTSDTSISTAYMELSRLRSDDTAVYYCARGTYYYGSALFDYWGQGTTVTVSS
VL: DIVMTQTPLSLSVTPGQPASISCKSSQSLENSNGNTYLNWYLQKPGQSPQLLIYRVSKRFSGVPDRFSGSGSGTDFTLKISRVEAEDVGVYYCLQLTHVPYTFGQGTKLEIKR
notes: also called Parental 8B8; parental antibody 8B8
As a reminder, the Kd is the free concentration of one partner at which half of the binding sites on the other are occupied at equilibrium, for simple one-to-one binding. The low end stands for higher affinity, the high end for lower affinity. Usually kon stands for a measure of how fast the partners come together. In experiment [2], B2 showed a Kd of 2.36 nM, an off-rate constant (koff) of 0.000134 s⁻¹ and a kon of 56600 M⁻¹ s⁻¹.

B3: anti-CD19 clone 5B08 in P329GLALA human IgG1 format (antibody, V domains shown)
VH: QVQLVQSGAEVKKPGASVKVSCKASGYTFTDYIMHWVRQAPGQGLEWMGYINPYNDGSKYTEKFQGRVTMTSDTSISTAYMELSRLRSDDTAVYYCARGTYYYGPQLFDYWGQGTTVTVSS
VL: DIVMTQTPLSLSVTPGQPASISCKSSQSLETSTGNTYLNWYLQKPGQSPQLLIYRVSKRFSGVPDRFSGSGSGTDFTLKISRVEAEDVGVYYCLQLDSYPNTFGQGTKLEIKR
notes: also called CD19 (8B8-5B08)
A word on the EC50: it is the midpoint of the concentration-response curve. Lower therefore signals greater potency. On to B3, for which, in experiment [3], the EC50 was determined as 0.014 nM.

B4: anti-CD19 clone 7H07 in P329GLALA human IgG1 format (antibody, V domains shown)
VH: QVQLVQSGAEVKKPGASVKVSCKASGYTFTDYIMHWVRQAPGQGLEWMGYINPYNDGSKYTEKFQGRVTMTSDTSISTAYMELSRLRSDDTAVYYCARGTYYYGSELFDYWGQGTTVTVSS
VL: DIVMTQTPLSLSVTPGQPASISCKSSQSLETSTGNTYLNWYLQKPGQSPQLLIYRVSKRFSGVPDRFSGSGSGTDFTLKISRVEAEDVGVYYCLQATHIPYTFGQGTKLEIKR
notes: also called CD19 (8B8-7H07)
Turning to B4, the EC50 in experiment [3] was 0.034 nM.

B5: anti-CD19 clone 2B03 in P329GLALA human IgG1 format (antibody, V domains shown)
VH: QVQLVQSGAEVKKPGASVKVSCKASGYTFTDYITHWVRQAPGQGLEWMGYINPYNDGSKYTEKFQGRVTMTSDTSISTAYMELSRLRSDDTAVYYCARGTYYYGPDLFDYWGQGTTVTVSS
VL: DIVMTQTPLSLSVTPGQPASISCKSSQSLETSTGNTYLNWYLQKPGQSPQLLIYRVSKRFSGVPDRFSGSGSGTDFTLKISRVEAEDVGVYYCLQLTHVPYTFGQGTKLEIKR
notes: also called CD19 (8B8-2B03)
The molecule B5 yielded an EC50 in experiment [3] of 0.041 nM. The EC50 values of the last two molecules are within 1.5-fold of each other.

B6: anti-CD19 clone 2B11 in P329GLALA human IgG1 format (antibody, V domains shown)
VH: QVQLVQSGAEVKKPGASVKVSCKASGYTFTDYIMHWVRQAPGQGLEWMGYINPYNDGSKYTEKFQGRVTMTSDTSISTAYMELSRLRSDDTAVYYCARGTYYYGPQLFDYWGQGTTVTVSS
VL: DIVMTQTPLSLSVTPGQPASISCKSSQSLETSTGTTYLNWYLQKPGQSPQLLIYRVSKRFSGVPDRFSGSGSGTDFTLKISRVEAEDVGVYYCLQLLEDPYTFGQGTKLEIKR
notes: also called CD19 (8B8-2B11)
Molecule B6 gave an EC50 in experiment [3] of 0.034 nM.

B7: anti-CD19 clone 5H09 in P329GLALA human IgG1 format (antibody, V domains shown)
VH: QVQLVQSGAEVKKPGASVKVSCKASGYTFTDYIMHWVRQAPGQGLEWMGYINPYNDGSKYTEKFQGRVTMTSDTSISTAYMELSRLRSDDTAVYYCARGTYYYGSALFDYWGQGTTVTVSS
VL: DIVMTQTPLSLSVTPGQPASISCKSSQSLESSTGNTYLNWYLQKPGQSPQLLIYRVSKRFSGVPDRFSGSGSGTDFTLKISRVEAEDVGVYYCLQLIDYPVTFGQGTKLEIKR
notes: also called CD19 (8B8-5H09)
Take B7: in experiment [3], the EC50 stood at 0.02 nM.
